Reference: patent US20230391845A1, “GLP-1, GIP AND GLUCAGON RECEPTOR TRIPLE AGONISTS” (priority 2020, published 2023)
*1 amine or outer side, *2 acyl side, *3 side chain or, on linkers, in order; H or OH if unused. Where a SMILES comes first, the peptide text is derived from it. Where no end group is shown, it is not given here. Side-chain parts run from the residue outwards. [ ]: non-standard residue; d: D form. The star is where a group is joined. X1 = O=C(O)CCCCCCCCCCCCCCCCCCC(=O)NCC1CCC(C(=O)*)CC1; C20 diacid = O=C(O)CCCCCCCCCCCCCCCCCCC(=O)*; γGlu = O=C(O)[C@H](CCC(=O)[*:2])N[*:1]; εLys = N[C@@H](CCCCN[*:1])C(=O)[*:2]; AEEA = NCCOCCOCC(=O)O; Aib = CC(C)(N)C(=O)O

T1: human glucose-dependent insulinotropic polypeptide receptor (human, UniProt P48546 22-466)
T1 sequence (looked up): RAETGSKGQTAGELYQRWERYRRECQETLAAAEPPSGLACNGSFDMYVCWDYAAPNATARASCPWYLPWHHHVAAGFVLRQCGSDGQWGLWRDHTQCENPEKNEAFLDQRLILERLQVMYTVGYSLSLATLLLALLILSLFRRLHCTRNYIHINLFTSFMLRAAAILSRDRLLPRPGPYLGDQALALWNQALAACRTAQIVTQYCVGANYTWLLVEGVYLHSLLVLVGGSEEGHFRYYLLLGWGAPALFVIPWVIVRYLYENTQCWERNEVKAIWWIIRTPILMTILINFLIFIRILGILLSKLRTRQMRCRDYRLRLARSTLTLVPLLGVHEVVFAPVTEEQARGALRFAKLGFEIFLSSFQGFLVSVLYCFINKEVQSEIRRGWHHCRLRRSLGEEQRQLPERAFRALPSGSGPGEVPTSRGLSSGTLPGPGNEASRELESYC

B1: Compound No. 14 (peptide)
peptide: Y[Aib]QGTFTSDYSIYLEKQAA[Aib]EFVQWLLEGGPSSGAPPPS-NH2
modifications: not fully specified (residue 16); printed as Y-Aib-QGTFTSDYSIYLE-K[2-[2-[2-[[2-[2-[2-[[(4S)-4-carboxy-4-[[4-[(19-carboxynonadecanoylamino)methyl]cyclohexanecarbonyl]amino]butanoyl]amino]ethoxy]ethoxy]acetyl]amino]ethoxy]ethoxy]acetyl]-QAA-Aib-EFVQWLLEGGPSSGAPPPS-NH2
B2: Compound No. 15 (peptide)
peptide: Y[Aib]QGTFTSDYSIYLEKQAA[Aib]EFVNWLLAGGPSSGAPPPS-NH2
modifications: not fully specified (residue 16); printed as Y-Aib-QGTFTSDYSIYLE-K[2-[2-[2-[[2-[2-[2-[[(4S)-4-carboxy-4-(19-carboxynonadecanoylamino)butanoyl]amino]ethoxy]ethoxy]acetyl]amino]ethoxy]ethoxy]acetyl]-QAA-Aib-EFVNWLLAGGPSSGAPPPS-NH2
B3: Compound No. 16 (peptide)
peptide: Y[Aib]QGTFTSDYSIYLEKQAA[Aib]EFVQWLLEGGPSSGAPPPS-NH2
modifications: not fully specified (residue 16); printed as Y-Aib-QGTFTSDYSIYLE-K[2-[2-[2-[[2-[2-[2-[[(4S)-4-carboxy-4-(19-carboxynonadecanoylamino)butanoyl]amino]ethoxy]ethoxy]acetyl]amino]ethoxy]ethoxy]acetyl]-QAA-Aib-EFVQWLLEGGPSSGAPPPS-NH2
B4: Compound No. 18 (peptide)
peptide: Y[Aib]HGTFTSDYSIYLEKQAA[Aib]EFVQWLLEGGPSSGAPPPS-NH2
modifications: not fully specified (residue 16); printed as Y-Aib-HGTFTSDYSIYLE-K[(2S)-2-amino-6-[[(2S)-2-amino-6-[[(4S)-4-carboxy-4-(19-carboxynonadecanoylamino)butanoyl]amino]hexanoyl]amino]hexanoyl]-QAA-Aib-EFVQWLLEGGPSSGAPPPS-NH2

Experiments:
human GLP-1 receptor = target: T2, human GLP-1 receptor (Homo sapiens, UniProt P43220); experiment: In vitro functional potency (CRE luciferase; whole cells), human GLP-1R; assay type: cell-based; details: BHK CRE luc2P hGLP-1R whole cells; Table 2; read-out: hGLP-1R CRE Luc EC50
T2 construct: expressed in transfected cells; host or cells: BHK cells (parent line BHKTS13) containing CRE luciferase

[1] = target: human glucagon-like peptide 1 receptor (human, UniProt P43220 24-463); experiment: cell-based or functional assay
[2] = target: T1, human glucose-dependent insulinotropic …; experiment: cell-based or functional assay
human glucagon receptor = human glucagon receptor (human, UniProt P47871 26-477); experiment: cell-based or functional assay
Chain of human glucagon receptor (P47871 26-477): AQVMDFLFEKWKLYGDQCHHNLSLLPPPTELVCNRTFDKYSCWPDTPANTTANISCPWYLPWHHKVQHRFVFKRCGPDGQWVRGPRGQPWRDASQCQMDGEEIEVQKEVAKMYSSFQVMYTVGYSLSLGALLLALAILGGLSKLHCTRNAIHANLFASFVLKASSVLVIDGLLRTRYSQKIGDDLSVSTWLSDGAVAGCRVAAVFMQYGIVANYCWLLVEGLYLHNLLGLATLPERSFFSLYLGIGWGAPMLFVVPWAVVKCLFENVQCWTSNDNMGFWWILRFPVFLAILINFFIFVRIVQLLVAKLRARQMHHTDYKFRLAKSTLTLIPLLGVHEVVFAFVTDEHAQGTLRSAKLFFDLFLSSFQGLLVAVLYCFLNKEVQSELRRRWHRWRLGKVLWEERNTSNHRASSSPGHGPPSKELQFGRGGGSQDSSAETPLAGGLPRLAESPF

T2 sequence (P43220 24-463): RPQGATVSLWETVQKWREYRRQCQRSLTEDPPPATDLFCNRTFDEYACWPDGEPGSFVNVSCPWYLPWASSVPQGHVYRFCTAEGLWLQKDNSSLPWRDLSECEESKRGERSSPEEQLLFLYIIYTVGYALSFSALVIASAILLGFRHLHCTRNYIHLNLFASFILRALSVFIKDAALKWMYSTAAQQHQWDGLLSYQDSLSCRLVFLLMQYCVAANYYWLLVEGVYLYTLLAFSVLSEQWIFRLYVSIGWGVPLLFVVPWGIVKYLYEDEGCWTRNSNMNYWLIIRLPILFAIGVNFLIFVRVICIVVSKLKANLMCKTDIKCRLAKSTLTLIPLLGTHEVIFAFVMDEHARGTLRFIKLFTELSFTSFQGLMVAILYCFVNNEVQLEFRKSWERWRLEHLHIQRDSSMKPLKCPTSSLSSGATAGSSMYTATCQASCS

Row | Molecule | EC50 (human GLP-1 receptor) [pM] | hGLP-1R CRE Luc EC50 (pM) [1] [pM] | hGIPR CRE Luc EC50 (pM) [2] [pM] | hGcgR CRE Luc EC50 (pM) (human glucagon receptor)
1 | CC[C@H](C)[C@H](NC(=O)[C@H](CO)NC(=O)[C@H](Cc1ccc(O)cc1)NC(=O)[C@H](CC(=O)O)NC(=O)[C@H](CO)NC(=O)[C@@H](NC(=O)[C@H](Cc1ccccc1)NC(=O)[C@@H](NC(=O)CNC(=O)[C@H](CCC(N)=O)NC(=O)C(C)(C)NC(=O)[C@@H](N)Cc1ccc(O)cc1)[C@@H](C)O)[C@@H](C)O)C(=O)N[C@@H](Cc1ccc(O)cc1)C(=O)N[C@@H](CC(C)C)C(=O)N[C@@H](CCC(=O)O)C(=O)N[C@@H](CCCCN)C(=O)N[C@@H](CCC(N)=O)C(=O)N[C@@H](C)C(=O)N[C@@H](C)C(=O)NC(C)(C)C(=O)N[C@@H](CCCCNC(=O)COCCOCCNC(=O)COCCOCCNC(=O)CC[C@H](NC(=O)C1CCC(CNC(=O)CCCCCCCCCCCCCCCCCCC(=O)O)CC1)C(=O)O)C(=O)N[C@@H](Cc1ccccc1)C(=O)N[C@H](C(=O)N[C@@H](CCC(N)=O)C(=O)N[C@@H](Cc1c[nH]c2ccccc12)C(=O)N[C@@H](CC(C)C)C(=O)N[C@@H](CC(C)C)C(=O)N[C@@H](CCC(=O)O)C(=O)NCC(=O)NCC(=O)N1CCC[C@H]1C(=O)N[C@@H](CO)C(=O)N[C@@H](CO)C(=O)NCC(=O)N[C@@H](C)C(=O)N1CCC[C@H]1C(=O)N1CCC[C@H]1C(=O)N1CCC[C@H]1C(=O)N[C@@H](CO)C(N)=O)C(C)C (stereo partly shown) [Compound No. 11] (H-Y[Aib]QGTFTSDYSIYLEKQAA[Aib]K([AEEA-AEEA-γGlu-X1])FVQWLLEGGPSSGAPPPS-NH2; N-terminus assumed) | 4.3 | – | – | –
2 | CC[C@H](C)[C@H](NC(=O)[C@H](CO)NC(=O)[C@H](Cc1ccc(O)cc1)NC(=O)[C@H](CC(=O)O)NC(=O)[C@H](CO)NC(=O)[C@@H](NC(=O)[C@H](Cc1ccccc1)NC(=O)[C@@H](NC(=O)CNC(=O)[C@H](CCC(N)=O)NC(=O)C(C)(C)NC(=O)[C@@H](N)Cc1ccc(O)cc1)[C@@H](C)O)[C@@H](C)O)C(=O)N[C@@H](Cc1ccc(O)cc1)C(=O)N[C@@H](CC(C)C)C(=O)N[C@@H](CCC(=O)O)C(=O)N[C@@H](CCCCNC(=O)[C@@H](N)CCCCNC(=O)[C@@H](N)CCCCNC(=O)CC[C@H](NC(=O)CCCCCCCCCCCCCCCCCCC(=O)O)C(=O)O)C(=O)N[C@@H](CCC(N)=O)C(=O)N[C@@H](C)C(=O)N[C@@H](C)C(=O)NC(C)(C)C(=O)N[C@@H](CCC(=O)O)C(=O)N[C@@H](Cc1ccccc1)C(=O)N[C@H](C(=O)N[C@@H](CCC(N)=O)C(=O)N[C@@H](Cc1c[nH]c2ccccc12)C(=O)N[C@@H](CC(C)C)C(=O)N[C@@H](CC(C)C)C(=O)N[C@@H](CCC(=O)O)C(=O)NCC(=O)NCC(=O)N1CCC[C@H]1C(=O)N[C@@H](CO)C(=O)N[C@@H](CO)C(=O)NCC(=O)N[C@@H](C)C(=O)N1CCC[C@H]1C(=O)N1CCC[C@H]1C(=O)N1CCC[C@H]1C(=O)N[C@@H](CO)C(N)=O)C(C)C [Compound No. 17] (H-Y[Aib]QGTFTSDYSIYLEK([εLys-εLys-γGlu-C20 diacid])QAA[Aib]EFVQWLLEGGPSSGAPPPS-NH2) | 2.8 | – | – | –
3 | CC[C@H](C)[C@H](NC(=O)[C@H](CO)NC(=O)[C@H](Cc1ccc(O)cc1)NC(=O)[C@H](CC(=O)O)NC(=O)[C@H](CO)NC(=O)[C@@H](NC(=O)[C@H](Cc1ccccc1)NC(=O)[C@@H](NC(=O)CNC(=O)[C@H](Cc1c[nH]cn1)NC(=O)C(C)(C)NC(=O)[C@@H](N)Cc1c[nH]cn1)[C@@H](C)O)[C@@H](C)O)C(=O)N[C@@H](Cc1ccc(O)cc1)C(=O)N[C@@H](CC(C)C)C(=O)N[C@@H](CCC(=O)O)C(=O)N[C@@H](CCCCNC(=O)[C@@H](N)CCCCNC(=O)[C@@H](N)CCCCNC(=O)CC[C@H](NC(=O)CCCCCCCCCCCCCCCCCCC(=O)O)C(=O)O)C(=O)N[C@@H](CCCNC(=N)N)C(=O)N[C@@H](C)C(=O)N[C@@H](C)C(=O)NC(C)(C)C(=O)N[C@@H](CCC(=O)O)C(=O)N[C@@H](Cc1ccccc1)C(=O)N[C@H](C(=O)N[C@@H](CCC(N)=O)C(=O)N[C@@H](Cc1c[nH]c2ccccc12)C(=O)N[C@@H](CC(C)C)C(=O)N[C@@H](CC(C)C)C(=O)N[C@@H](CCC(=O)O)C(=O)NCC(=O)NCC(=O)N1CCC[C@H]1C(=O)N[C@@H](CO)C(=O)N[C@@H](CO)C(=O)NCC(=O)N[C@@H](C)C(=O)N1CCC[C@H]1C(=O)N1CCC[C@H]1C(=O)N1CCC[C@H]1C(=O)N[C@@H](CO)C(N)=O)C(C)C [Compound No. 37] (H-H[Aib]HGTFTSDYSIYLEK([εLys-εLys-γGlu-C20 diacid])RAA[Aib]EFVQWLLEGGPSSGAPPPS-NH2; N-terminus assumed) | 1.8 | – | – | –
4 | CC[C@H](C)[C@H](NC(=O)[C@H](CO)NC(=O)[C@H](Cc1ccc(O)cc1)NC(=O)[C@H](CC(=O)O)NC(=O)[C@H](CO)NC(=O)[C@@H](NC(=O)[C@H](Cc1ccccc1)NC(=O)[C@@H](NC(=O)CNC(=O)[C@H](Cc1c[nH]cn1)NC(=O)C(C)(C)NC(=O)[C@@H](N)Cc1c[nH]cn1)[C@@H](C)O)[C@@H](C)O)C(=O)N[C@@H](CC(C)C)C(=O)N[C@@H](CC(C)C)C(=O)N[C@@H](CCC(=O)O)C(=O)N[C@@H](CCCCNC(=O)[C@@H](N)CCCCNC(=O)[C@@H](N)CCCCNC(=O)CC[C@H](NC(=O)CCCCCCCCCCCCCCCCCCC(=O)O)C(=O)O)C(=O)N[C@@H](CCC(N)=O)C(=O)N[C@@H](C)C(=O)N[C@@H](C)C(=O)N[C@@H](CCCNC(=N)N)C(=O)N[C@@H](CCC(=O)O)C(=O)N[C@@H](Cc1ccccc1)C(=O)N[C@H](C(=O)N[C@@H](CCC(N)=O)C(=O)N[C@@H](Cc1c[nH]c2ccccc12)C(=O)N[C@@H](CC(C)C)C(=O)N[C@@H](CC(C)C)C(=O)N[C@@H](CCC(=O)O)C(=O)NCC(=O)NCC(=O)N1CCC[C@H]1C(=O)N[C@@H](CO)C(=O)N[C@@H](CO)C(=O)NCC(=O)N[C@@H](C)C(=O)N1CCC[C@H]1C(=O)N1CCC[C@H]1C(=O)N1CCC[C@H]1C(=O)N[C@@H](CO)C(=O)O)C(C)C [Compound No. 55] (H-H[Aib]HGTFTSDYSILLEK([εLys-εLys-γGlu-C20 diacid])QAAREFVQWLLEGGPSSGAPPPS-OH; N-terminus assumed) | 2 | – | – | –
5 | B1 | – | 4.3 | 4.2 | 287
6 | B2 | – | 1.4 | 4.8 | 267
7 | Y[Aib]QGTFTSDYSIYLEKQAA[Aib]EFVQWLLEGGPSSGAPPPS-NH2 (not fully specified (residue 16)) [Compound No. 17] | – | 2.8 | 7 | 86.6
8 | B3 | – | 3.1 | 11.4 | 185
9 | B4 | – | 106 | 7.1 | 72.1
